Data: paper PMC10350915, “Development of a New Class of CXCR4-Targeting Radioligands Based on the Endogenous Antagonist EPI-X4 for Oncological Applications” (Journal of Medicinal Chemistry, 2023)
Square brackets hold non-standard residues; d marks the D form. Peptide text beside a SMILES is read from it. * marks the point of attachment. DOTA = O=C(O)CN1CCN(CC(=O)O)CCN(CC(=O)*)CCN(CC(=O)O)CC1

What was measured:
[1] = type: in vitro ADME, human; conditions: human, plasma
Experimental: Representative radiochromatograms are provided in Figure S25 for ^177Lu-1, ^177Lu-2, and ^177Lu-7. This included ^177Lu-9 despite its fatty acid chain.
(§1) Figure 3 Stability of the ^177Lu ligands in human plasma at 37 °C, expressed as % of intact radioligand over time, assessed by radio-HPLC. The % of plasma protein binding (PPB) after 60 min incubation is provided in parenthesis and it is expressed as the % of radioligand in the protein fraction (pellet) versus the total activity in the plasma. TEXT PRINTED IN THE PICTURE: ^177Lu-1: PPB: 35% | ^177Lu-2: PPB: 22% | ^177Lu-5: PPB: 42% | ^177Lu-6: PPB: 38% | ^177Lu-7: PPB: 39% | ^177Lu-9: PPB: 37%
To 1 mL of fresh human plasma, previously equilibrated at 37 °C, 500 pmol (8–10 MBq) of each ^177Lu-labeled ligand was added. The mixture was incubated at 37 °C for different time points (0, 15, 30, 60, and 120 min). At each time point, a 100 μL aliquot was removed and treated with 1.5 excess (v/v) of acetonitrile, to precipitate plasma proteins, followed by centrifugation for 5 min at 3500 rpm. The supernatant was collected and the process of protein precipitation was repeated. Afterward, 100 μL from the supernatant was taken, diluted with water at a ratio of 1:10 (v/v), and injected into radio-HPLC. The radioligand (in)stability was assessed by quantifying the percentage of intact radioligand over time.

[2] = type: in vitro ADME; conditions: human, plasma, plasma protein binding (PPB)
Experimental: as §1
For the determination of plasma protein binding (PPB), 100 μL from the plasma incubated with the ^177Lu ligand was removed and measured in a γ-counter (total radioactivity). Protein precipitation and separation followed, as described above. The supernatant and the protein pellet were then measured in a γ-counter. The percentage of plasma protein binding was calculated as the ratio between the protein-bound radioactivity and the total radioactivity in the plasma.

[3] = system: Ghost-CXCR4 cells; experiment: Cellular uptake and distribution in Ghost-CXCR4 cells; type: cell-based, human; conditions: 37 °C, 60 min
Experimental: Figure 4 In vitro assessment in Ghost-CXCR4 cells at 37 °C. […] Each experiment was performed in triplicate. Results are means ± SD [% of applied activity] from a minimum of two separate experiments. […] Cellular uptake was interrupted at 15, 30, and 60 min by removing the medium and washing twice with ice-cold PBS. The cell surface-bound radioligand was obtained by washing cells twice with ice-cold glycine buffer (pH 2.8) followed by a collection of the internalized fraction after treating the cells with 1 M sodium hydroxide (NaOH). The activity in each fraction was measured in a γ-counter. […] The results were expressed as a percentage of the applied radioactivity after subtracting the nonspecific uptake.

[4] = system: Jurkat xenografts; type: in vivo, mouse; conditions: 1 h p.i., SPECT/CT or PET/CT
Experimental: The ability of the ^177Lu ligands to target CXCR4 in vivo was assessed by SPECT/CT imaging in Jurkat xenografts. […] 1 h after injection, the remaining amount of radioligand in the body (and vice versa, the washout) was quantified by measuring the total body activity (mouse) in a dose calibrator. The % of the radioligand remaining in the body after 1 h is reported in Figure 6A as % of the remaining activity in reference to the injected activity (100%).
Figure 6 SPECT/CT images as maximum intensity projections (MIPs) of Jurkat tumor-bearing mice at 1 h p.i. of ^177Lu-labeled ligands (200 pmol, ∼15 MBq). […] (B) Same SPECT/CT images of ^177Lu-1, ^177Lu-2, ^177Lu-5, and ^177Lu-6, adapted in a lower scale. T: tumor, L: liver, and K: kidneys. […] TEXT PRINTED IN THE PICTURE: (A) ^177Lu-1: Remaining Activity (% injected): 6 % | (A) ^177Lu-2: Remaining Activity (% injected): 7 % | (A) ^177Lu-5: Remaining Activity (% injected): 7 % | (A) ^177Lu-6: Remaining Activity (% injected): 8 % | (A) ^177Lu-7: Remaining Activity (% injected): 55 % | (A) ^177Lu-9: Remaining Activity (% injected): 94 %
The experimental protocol involving animals was approved by the Veterinary Office (Department of Health) of the Cantonal Basel-Stadt (Approval No. 30515) in accordance with the Swiss regulations for animal treatment. Female athymic nude-Foxn1^nu/Foxn1^+ mice (Envigo, The Netherlands), 4–6 weeks old, were injected subcutaneously with 10^7 Jurkat cells in a 200 μL (1:1) mixture of PBS and Matrigel (CorningMatrigelMembrane matrix, Fischer Scientific, Germany) on the right shoulder. The tumors were allowed to grow for 3–4 weeks before commencement of the experiments.
Nude mice bearing Jurkat xenografts were intravenously injected via the tail vein with ∼15 MBq (200 pmol) of the ^177Lu ligands and 8 MBq (200 pmol) of ^68Ga-7 were euthanized 1 h post injection (p.i.). The radioactivity in the syringe before and after injection was measured followed by measuring the amount of radioactivity remaining in the sacrificed mice. […]

Structure (SMILES): CC[C@@H](C)[C@@H](N)C(=O)N[C@@H](CC(C)C)C(=O)N[C@@H](CCCNC(=N)N)C(=O)N[C@@H](Cc1c[nH]c2ccccc12)C(=O)N[C@@H](CO)C(=O)N[C@@H](CCCNC(=N)N)C(=O)N[C@@H](CCCCN)C(=O)N[C@@H](CCCCNC(=O)CN1CCN(CC(=O)O)CCN(CC(=O)O)CCN(CC(=O)O)CC1)C(N)=O [^177Lu-7, metal not drawn] (H-[dI]LRWSRKK(DOTA)-NH2; N-terminus assumed)
- metabolic stability in plasma (in words) [1]: high metabolic stability in plasma up to 4 h
- fraction unbound at 60 min [2]: 0.61
- cellular uptake (% of the applied activity) [3]: 7.90 ± 1.48%
- visualization of CXCR4-expressing tumor xenograft by imaging [4]: accumulated and visualized the CXCR4-expressing tumor xenograft
